Reference: article PMC11996885 (2025)

B1: FGFR2 parental antibody B (antibody, V domains shown)
VH: QIQLVQSGPELKKPGETVKISCKASGYTFTDFGMNWMKQAPGKGFKWMGWINTSTGESTYADDFKGRFAFSLETSASTAYLQINNLKNEDMATYFCARNSYYGGSYGYWGQGTTLTVSS
VL: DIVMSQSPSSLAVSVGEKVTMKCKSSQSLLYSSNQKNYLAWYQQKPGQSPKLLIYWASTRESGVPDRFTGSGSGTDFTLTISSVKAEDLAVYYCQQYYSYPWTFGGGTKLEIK
B2: FGFR2 parental antibody E (antibody, V domains shown)
VH: QVQLVQSGAEVKKPGSSVKVSCKASGYIFTTYNVHWVRQAPGQGLEWIGSIYPDNGDTSYNQNFKGRATITADKSTSTAYMELSSLRSEDTAVYYCARGDFAYWGQGTLVTVSS
VL: DIQMTQSPSSLSASVGDRVTITCKASQGVSNDYAWYQQKPGKAPKLLIYSASYRYTGVPSRFSGSGSGTDFTFTISSLQPEDIATYYCQQHSTTPYTFGQGTKLEIK
B3: FGFR2 parental antibody F (antibody, V domains shown)
VH: QVQLVQSGAEVKKPGESLKISCKGSGYSFTNYYIHWVRQMPGKGLEWMGAIYPDNSDTTYSPSFQGQVTISADKSISTAYLQWSSLKASDTAMYYCARGADIWGQGTLVTVSS
VL: DIQMTQSPSSLSASVGDRVTITCRASQDIDPYLSNWYQQKPGKAPKLLIYDASNLQSGVPSRFSGSGSGTDFTLTISSLQPEDFATYYCQQTTSHPYTFGQGTKVEIK
B4: FGFR2 parental antibody D (antibody, V domains shown)
VH: EVQLVESGGGLVQPGGSLRLSCAASGFPFTSTGISWVRQAPGKGLEWVGRTHLGDGSTNYADSVKGRFTISADTSKNTAYLQMNSLRAEDTAVYYCARTYGIYDTYDMYTEYVMDYWGQGTLVTVSS
VL: DIQMTQSPSSLSASVGDRVTITCRASQDVDTSLAWYKQKPGKAPKLLIYSASFLYSGVPSRFSGSGSGTDFTLTISSLQPEDFATYYCQQSTGHPQTFGQGTKVEIK
B5: FGFR2 parental antibody C (antibody, V domains shown)
VH: QVQLVESGGGLVKPGGSLRLSCAASGFTFSSYALSWVRQAPGKGLEWVGRIRSKIDGGTTDYAAPVKGRFTISRDDSKNTLYLQMNSLKTEDTAVYYCARDRSPSDSSAFAIWGQGTLVTVSS
VL: DIELTQPPSVSVSPGQTASITCSGDNLGSQYVDWYQQKPGQAPVLVIYDDNDRPSGIPERFSGSNSGNTATLTISGTQAEDEADYYCQSWDSLSVVFGGGTKLTVL
B6: FGFR2 parental antibody A (antibody, V domains shown)
VH: EVQLLESGGGLVQPGGSLRLSCAASGFTFSSYAMSWVRQAPGKGLEWVSAISGSGTSTYYADSVKGRFTISRDNSKNTLYLQMNSLRAEDTAVYYCARVRYNWNHGDWFDPWGQGTLVTVSS
VL: QSVLTQPPSASGTPGQRVTISCSGSSSNIGNNYVSWYQQLPGTAPKLLIYENYNRPAGVPDRFSGSKSGTSASLAISGLRSEDEADYYCSSWDDSLNYWVFGGGTKLTVL

What follows are binders tested against FGFR2 on SNU16 cells (FGFR2 amplification) (human (endogenous in SNU16), UniProt P21802 22-821) (assay: FACS; apparent Kd, SNU16 cells).
Sequence of FGFR2 on SNU16 cells (FGFR2 amplification) (P21802 22-821): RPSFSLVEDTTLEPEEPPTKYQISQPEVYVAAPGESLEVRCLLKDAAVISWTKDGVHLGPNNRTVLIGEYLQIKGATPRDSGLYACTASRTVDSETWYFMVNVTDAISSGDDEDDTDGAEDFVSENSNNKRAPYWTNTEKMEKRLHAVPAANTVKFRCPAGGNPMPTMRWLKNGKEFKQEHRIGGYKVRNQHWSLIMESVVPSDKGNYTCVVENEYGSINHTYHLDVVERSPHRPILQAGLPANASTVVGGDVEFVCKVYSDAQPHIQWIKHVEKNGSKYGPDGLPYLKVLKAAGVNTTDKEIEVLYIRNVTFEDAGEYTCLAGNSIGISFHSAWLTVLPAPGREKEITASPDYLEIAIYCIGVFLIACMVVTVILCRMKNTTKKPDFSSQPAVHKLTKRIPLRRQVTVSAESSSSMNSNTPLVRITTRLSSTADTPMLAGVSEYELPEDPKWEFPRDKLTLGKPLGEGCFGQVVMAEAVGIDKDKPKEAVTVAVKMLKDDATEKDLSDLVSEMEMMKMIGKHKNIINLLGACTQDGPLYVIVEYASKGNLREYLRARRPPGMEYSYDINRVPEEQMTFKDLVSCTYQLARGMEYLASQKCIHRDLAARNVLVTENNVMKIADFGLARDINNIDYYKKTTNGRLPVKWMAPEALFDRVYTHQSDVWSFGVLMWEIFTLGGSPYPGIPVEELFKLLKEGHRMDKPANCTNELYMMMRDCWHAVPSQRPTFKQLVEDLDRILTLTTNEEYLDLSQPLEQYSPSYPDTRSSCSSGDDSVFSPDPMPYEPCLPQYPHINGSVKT
In the case of B1, the Kd is reported as 32.8 nM. Binder B2 has a Kd of 1.77 nM. Work on B3 yielded a Kd of 9.4 nM. For B4, the Kd was 1.99 nM. In the case of B5, the Kd is reported as 0.15 nM. B6 gave a Kd of 0.76 nM.
